Source: US20220017611A1 (INSERM INSTITUTE NATIONAL DE LA SANT ET DE LA RECHERCHE M …, published 2022)
Where two headings read alike, the source gives them in different places.

T1: His-SUMO-Tau peptide Tau[273-318] (human, UniProt O02828 235-280 (Capra hircus entry), not fully specified)
T1 construct: SUMO domain fused at its C-terminus to the Tau peptide [273-318]; also called fused peptide; not shown: The N-terminal HisTag, the SUMO3 domain and any linker from vector pETNKI-HisSUMO3-LIC
T1 peptide: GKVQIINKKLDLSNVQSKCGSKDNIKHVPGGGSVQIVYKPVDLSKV


Experiments:
[1] = biological target: T2, recombinant full-length Tau protein, longest isoform (Tau 2N4R) (human, UniProt P10636-8 1-441, limits assumed, biotinylated with NHS-biotin for SPR; 15N-labelled for NMR); assay: cell-based or functional assay
T2 sequence (P10636 other isoform, or with tags, fused parts or gaps limits assumed): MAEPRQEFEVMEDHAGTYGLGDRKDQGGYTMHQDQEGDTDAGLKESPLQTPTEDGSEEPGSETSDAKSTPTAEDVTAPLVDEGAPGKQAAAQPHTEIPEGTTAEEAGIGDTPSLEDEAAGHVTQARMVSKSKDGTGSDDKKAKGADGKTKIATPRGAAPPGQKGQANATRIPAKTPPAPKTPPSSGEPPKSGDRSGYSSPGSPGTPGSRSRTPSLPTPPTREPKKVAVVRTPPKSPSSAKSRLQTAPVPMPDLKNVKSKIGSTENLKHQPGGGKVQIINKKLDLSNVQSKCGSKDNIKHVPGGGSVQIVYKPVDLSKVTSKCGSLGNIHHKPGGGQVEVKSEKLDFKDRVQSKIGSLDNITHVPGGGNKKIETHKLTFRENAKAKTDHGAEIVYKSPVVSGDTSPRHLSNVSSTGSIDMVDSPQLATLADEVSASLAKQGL

[2] = biological target: T2, recombinant full-length Tau protein, …; assay: SPR (Biacore T200), single-cycle kinetics, biotinylated Tau on streptavidin chip, VHH injected 0.125-2 µM
Protocol: (§1) Affinity measurements were performed on a BIAcore T200 optical biosensor instrument (GE Healthcare). Recombinant Tau proteins were biotinylated with 5 molar excess of NHS-biotin conjugates (Thermofisher) during 4 hours at 4° C. Capture of biotinylated Tau was performed on a streptavidin SA sensorchip in HBS-EP+ buffer (GE Healthcare). One flow cell was used as a reference to evaluate nonspecific binding and provide background correction. Biotinylated-Tau was injected at a flow-rate of 30 μL/min, until the total amount of captured Tau reached 500 resonance units (RUs). VHHs were injected sequentially with increasing concentrations ranging between 0.125 and 2 μM in a single cycle, with regeneration (3 successive washes of 1M NaCl) between each VHH. On the other hand, VHH Z70 was immobilized on a CMS chip in HBS-EP+ buffer (GE Healthcare) and increasing concentrations, ranging between 0.125 and 2 μM of the SUMO-Tau peptide, were successively injected. Single-Cycle Kinetics (SCK) analysis⁵² was performed to determine association kon and dissociation Koff rate constants by curve fitting of the sensorgrams using the 1:1 Langmuir model of interaction of the BIAevaluation sotware 2.0 (GE Healthcare). Dissociation equilibrium constants (KD) was calculated as kon/Koff.

[3] = biological target: T1, His-SUMO-Tau peptide Tau[273-318]; assay: SPR, single-cycle kinetics, VHH Z70 immobilized on the chip, SUMO-Tau[273-318] injected 0.125-2 µM
Protocol: as §1, with “[…]. […]” for “kon/Koff.”

[4] = biological target: T2, recombinant full-length Tau protein, …; assay: SPR (Biacore T200), single-cycle kinetics, biotinylated Tau on streptavidin chip, VHH injected 0.125-2 µM; remark: listed apart in the source
Protocol: as §1, with “VHH.” for “VHH. On the other hand, VHH Z70 was immobilized on a CMS chip in HBS-EP+ buffer (GE Healthcare) and increasing concentrations, ranging between 0.125 and 2 μM of the SUMO-Tau peptide, were successively injected.”, “(Kd)” for “(KD)”

[5] = biological target: T2, recombinant full-length Tau protein, …; assay: SPR, biotinylated Tau on streptavidin chip (the best mutant is Mut1 by Table 4)
Protocol: as §1, with “VHH.” for “VHH. On the other hand, VHH Z70 was immobilized on a CMS chip in HBS-EP+ buffer (GE Healthcare) and increasing concentrations, ranging between 0.125 and 2 μM of the SUMO-Tau peptide, were successively injected.”, “(Kd)” for “(KD)”
A mutant library of VHH Z70 has been screened for mutants displaying a stronger affinity in yeast two-hybrid system as described above. 8 mutants were selected and their affinity have been further characterized using SPR experiments.

Row | Binder | Kd [4] [nM] | koff [4] [s⁻¹] | kon [4] [M⁻¹ s⁻¹] | also measured
1 | VHH E4-1 (VHH, Selected from the synthetic Nali-H1 phage library; also called lead VHH E4-1) VHH: EVQLQASGGGFVQPGGSLRLSCAASGATSTFDGMGWFRQAPGKEREFVSAISYEQGSYTYYADSVKGRFTISRDNSKNTVYLQMNSLRAEDTATYYCAPAYEGDLYAFDSYWGQGTQVTVSS |  |  |  | Thioflavin T fluorescence signal (% of positive control), 1:1 Tau:VHH E4-1 molar ratio [1]: 58.3%; maximal Thioflavin T fluorescence signal (% of positive control), molar ratio 1:0.25 Tau:VHH E4-1 [1]: 86.9%; time to gain 50% of maximal Thioflavin T signal, 1:1 Tau:VHH E4-1 molar ratio [1]: > 12.8 h; time to gain 50% of maximal Thioflavin T signal, molar ratio 1:0.25 Tau:VHH E4-1 (2.5 h for the positive control) [1]: ~3.8 h; Kd [2]: 345 nM; koff [2]: 0.0017 s⁻¹; kon [2]: 4980 M⁻¹ s⁻¹
2 | VHH Z70 (VHH, E4-1 with G12V, P16S, T81M and W114G; It may be the form actually produced from pHEN2; also called single domain antibody Z70; optimized VHH Z70) VHH: EVQLQASGGVFVQSGGSLRLSCAASGATSTFDGMGWFRQAPGKEREFVSAISYEQGSYTYYADSVKGRFTISRDNSKNMVYLQMNSLRAEDTATYYCAPAYEGDLYAFDSYGGQGTQVTVSS | 147 | 0.00267 | 18100 | Kd [3]: 85 nM; maximal Thioflavin T fluorescence signal (% of positive control), 1:1 Tau:VHH Z70 molar ratio [1]: 4.1%; Kd [2]: 147 nM; koff [2]: 0.0026 s⁻¹; kon [2]: 18100 M⁻¹ s⁻¹
3 | VHH Mut1 (VHH, Variant of Z70; also called VH Mut1) VHH: EVQLQASGGVFVQSGGSLRLSCAASGATSTFDGMGWFRQAPGKEREFVSAISYEQGSYTYYADSVKGRFTISRDNSKNMVYLQMNSLRAEDTATYYCAPAYEGDLYAFDSYGEQGTQVTVSS | 22.6 | 0.00242 | 107000 | fold improvement of KD against VHH Z70 [5]: > 6 fold
4 | VHH Mut3 (VHH, Variant of Z70; also called VH Mut3) VHH: EVQLQASGGVFVQSGGSLRLSCAASGATSTFDGMGWFRQAPGKEKEFVSAISYEQGSYTYYADSVKGRFTISRDNSKNMVYLQMNSLRAEDTATYYCAPAYEGDLYAFDSYGGQGTQVTVSS | 80.5 | 0.0021 | 26000 | 
5 | VHH Mut5 (VHH, Variant of Z70; also called VH Mut5) VHH: EVQLQASGGVFVQSGGSLRLSCAASGATSTFDGMGWFRQAPGKEREFVSAISYEQGSYTYYADSVKGRFTISRDNSKNMVYLQMNSLRAEDTASYYCAPAYEGDLYAFDSYGGQGTQVTVSS | 80.8 | 0.000883 | 10900 | 
6 | VHH Mut9 (VHH, Variant of Z70; also called VH Mut9) VHH: EVQLQASGGVFVQSGGSLRLSCAASGATSTFDGMGWFRQAPGKEREFVSAISYEQGSYTYYADSVKGRFTISRDNSKNMVYLQMNSLRAEDTATYYCASAYEGDLYAFDSYGEQGTQVTVSS | 51 | 0.00205 | 40100 | 
7 | VHH Mut12 (VHH, Variant of Z70; also called VH Mut12) VHH: AEVQLQASGGVFVQSGGSLRLCCAASGATSTFDGMGWFRQAPGKEREFVSAISYEQGSYTYYADSVKGRFTISRDNSKNMVYLQMNSLRAEDTATYYCAPAYEGDLYAFDSYGEQGTQVTVSS | 61.1 | 0.00207 | 33900 | 
8 | VHH Mut14 (VHH, Variant of Z70; also called VH Mut14) VHH: EVQLQASGGVFVQSGGSLRLSCAASGATSIFDGMGWFRQAPGKEREFVSAISYGQGSYTYYADSVKGRFTISRDNSKNMVYLQMNSLRAEDTATYYCAPAYEGDLYAFDSYGEQGTQVTVSS | 74.2 | 0.0014 | 18800 | 
9 | VHH Mut15 (VHH, Variant of Z70; also called VH Mut15) VHH: EVQLQASGGVFVQSGGSLRLSCAASGATSTFDGMGWFRQAPGKEREFVSAISYEQGSYTYYADSVKGRFTISRDNSKNMVYLQMNSLGAEDTATYYCASAYEGDLYAFDSYEGQGTQVTVSS | 95.6 | 0.00203 | 21300 | 
10 | VHH Mut20 (VHH, Variant of Z70; also called VH Mut20) VHH: EVQLQASGGVFVQSGGSLRLSCAASGATSTFDGMGWFRQAPGKEKEFVSAISYEQGSYTYYADSVKGRFTISRDNSKNMVYLQMNSLRAEDTATYYCAPAYEGDLYAFDSYGEQGTQVTVSS | 41.8 | 0.00089 | 21200 | 
